The target of assay [1] is α-synuclein aggregates from mouse (mouse, UniProt O55042 1-140). In words: filter retardation assay.
Assay [2] deals with mouse α-synuclein (WT-α-syn from mouse) (mouse, UniProt O55042 1-140). In words: method not named in the sentence (Western blot in the same paragraph).
In a further assay the target is γ-synuclein (UniProt O76070 1-127). In words: Western blot.
Another assay addresses β-synuclein (UniProt Q16143 1-134). In words: Western blot.

The record followed here is US20240402194A1 (QATAR FOUNDATION FOR EDUCATION SCIENCE AND COMMUNITY …, published 2024).

Chain of β-synuclein (Q16143 whole entry): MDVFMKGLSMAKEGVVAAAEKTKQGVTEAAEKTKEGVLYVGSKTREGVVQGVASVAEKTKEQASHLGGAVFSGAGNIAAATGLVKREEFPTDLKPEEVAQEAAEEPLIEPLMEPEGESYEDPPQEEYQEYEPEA
Chain of γ-synuclein (O76070 whole entry): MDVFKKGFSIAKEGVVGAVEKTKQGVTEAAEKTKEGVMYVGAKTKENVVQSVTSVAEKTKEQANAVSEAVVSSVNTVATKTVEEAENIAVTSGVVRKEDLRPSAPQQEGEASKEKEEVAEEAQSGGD

B1: monoclonal antibody 2A1 (antibody, mouse IgG1, kappa, V domains shown)
VH: QVQLQQPGAELVKPGASVKMSCKASGYTFSSYNLHWVKQTPGQGLEWIGAIYPGNGDTSYNQKFKGKATLTADKSSSTAYMQLSSLTSEDSAVYYCTRRDYYGSRGFAYWGQGTLVTVSA
VL: DIQMNQSPSSLSASLGDTITITCHASQNINVWLSWYQQKPGNIPKLLIYKASNLHTGVPSRFSGSRSGTGFTLTISSLQPEDIATYYCQQGQSFPWTFGGGTKLEIKR
notes: also called mAb 2A1
As to B1, the binding result in assay [1] and in assay [2] was “binds” in each case.

B2: monoclonal antibody 4B1 produced by the hybridoma 4B1, ATCC Patent Deposit Number PTA-127017 (antibody, mouse IgG1, kappa, V domains shown)
VH: EVKLVESGGGLVQPGGSLKLSCAASGITFSSYTMSWVRQTPEKRLEWVGYISNGGGRTYYPDTVKGRFTISRDNAKNTLYLQMSSLKSEDTAMYYCARQITTAMGYYYAMDYWGQGTSVTVSS
VL: DVVMTQTPLSLPVSLGDQASISCRSSQSLVHSNGNTYLHWYLQKPGQSPKLLISKVSNRFSGVPDRFSGSGSGTDFTLKISRVEAEDLGVYFCSQSTHVPLTFGAGTKLELKR
notes: also called mAb 4B1
As to B2, the binding result in the assay with γ-synuclein and in the assay with β-synuclein was “no binding” throughout.
